Test: soluble on expression in E. coli; label from the status in PepcDB or PDB records

Sequence	soluble on expression in E. coli
MGSDKIHHHHHHMSLSPQASAAPEQGYNFAYLDEQTKRMIRRGLLKAVAIPGYQVPFGGREMPLPYGWGTGGMQVTAAILGADDVLKVIDQGADDTTNAVSIRRFFARTAGVATTERTPEATVIQTRHRIPETALSGEQIMVYQVPIPEPLRFIEPSEAETRTMHALDDYGVMHVKLYEDIATFGHIATSYAYPVTVDERYVMDPSPIPKFDNPKLDMNPALMLFGAGREKRLYAVPPFTRVASLDFEDHPFEVQRWEESCAFCGSHESYLDELIVDDRGGKRFVCSDTDYCTQRRARQEEGEDAQ	not soluble
MGSDKIHHHHHHMSNANPSRLGMVNGTGADDALFLKVFGGEVLTTFAENNVFLPLTMSRTITSGKSAQFPVLGKNTAYYHVPGAELNGNNILNAERVITVDGLLVSPVFIAKIDEAKTHYDVRSQYTSECGASLSNQADRTISQVLINAARSTATITGGFGGTKLVDAAFGTDGDKLAAGIFGIAQTFDEKDVPETDRYAAVRPAQYYLMVAGTKVLNRDWGGSGSYMDGKVLKVAGVSIVKSNHIPKSVITGSAQAAYDGDFTKTVAVGFHKSAVGTVKLLDLQTEGEYQIQRQGTLIVAKYAMGHGVLRPEAAVELASA	not soluble
MGSDKIHHHHHHMSNHSSSIPELSDNGIRYYQTYNESLSLWPVRCKSFYISTRFGQTHVIASGPEDAPPLVLLHGALFSSTMWYPNIADWSSKYRTYAVDIIGDKNKSIPENVSGTRTDYANWLLDVFDNLGIEKSHMIGLSLGGLHTMNFLLRMPERVKSAAILSPAETFLPFHHDFYKYALGLTASNGVETFLNWMMNDQNVLHPIFVKQFKAGVMWQDGSRNPNPNADGFPYVFTDEELRSARVPILLLLGEHEVIYDPHSALHRASSFVPDIEAEVIKNAGHVLSMEQPTYVNERVMRFFNAETGISR	not soluble
MGSDKIHHHHHHMSNRKINPFVVTGKIEPEYFCDRESESARLIKSIANGNNSVVISPRRMGKTGLIQFCYDKEEIGRNYYTFFIDILHTSSLREFTYLLGREIYETLLPQSKKMINLFVRTLKSISGRFGFDPVSGMPTFGIELGDIEHPEYTLEEIFRYLADADRPCIVAIDEFQQIAKYPEKNIEALLRTHIQKLRNCNFIFAGSERHMMQEMFASAARPFYHSADMLELKAIEADVYIPFIVGHFEKRDRSISPDDAARVYRLFKGHTFYIQKTFNEAFADTPEGEVCTPEIIESAIDNMIASNDTIFREILSNIPEKQKTLLYAIAKEGEAERITSTGFIKRHNLISASSVQSAANKLLDKDIITEINKVYCVTDKLFAMWINTLYGTKDFWRMTSRP	not soluble
MGSDKIHHHHHHMSNSSRLSVASNSQDATSPLRLLVLSNGHGEDVIAVRILQELQRQSNPPEIFALPLVGEGRAYQQLEIPLIGSVRTMPSGGFIYMDGRQLARDVRGGLLQLTLSQIKAVRRWVSSQKKLGNKRAILAVGDIVPLLFATFSGANYAFVGTAKSEYYVRDEAGLLPRKSKDARWENFSGSVYHPWERWLMSRRRCKAVFPRDVLTTETLKQWPIPAFNLGNPMMDGLQPTFSRQQFYSRDSHQQETVRPLMVTLLPGSRPPEAYTNWEKIMIAVSALMASFQERDSVFYTSGTVVFLGAIAPGLDSNILSQSVQSQGWRAESVCPIQLPDPNILTFKQRNAYLLLTQQSYNDCLHLGDFAIAMAGTATEQFIGLGKPAIAIPGNGPQYNPAFAEAQSRHLGSSLILVEQPAEVAEIVQSLFKDPDILQIIAENGLRRMGKPGAALRIAECLQERLS	not soluble
MGSDKIHHHHHHMSNYRNPHQLIITADDYGMCPEVNRAIEECLAAGALRATCVMTNMPAYTDADRLSKDFPSASIGIHWTLTAGTPVAPLSEVPDLVAPNGQFWPAAEFRQRWLSRRISPTQVVIELQAQHARFVELIGQPAFWNTHQNVHVLPRLFPLVVDLAHRLGIPAMRSHRRITAPRHSSTLRYYLTHPIYWLKGQIIARWAAAAEKRGLRMPAGVVSTPGFGPGKVAIDQIIARIPWPRRLPAELVIHPATRVIPGLFGGLTESRLREFEVFRDPTLVERLAAMGVQPVGFEVL	not soluble
MGSDKIHHHHHHMSPLKSFLGVIYMNRSERLNQELIFLSYRQEFHIKELMQEFNISKRTALRDVNSLEQLGLSIYVEPGRYGGYQIMQQQLWVPILLNSQEINALFFALKALSLLSATPFEKSYHTIYKKLMATLSLSNQRQVAKLQRVVNYYSIPNLDAPTHLSDLLTAILDENVVQLTMTTVTAGFQIFDLLYRHGIWFFSGVNLDNNAWGIYRCDTIKVFQTSEQPARYTWKQLAQRQRSYDHHHHNIRYKCALTPPGREHVQKNNYPNMHLTHQNDQDYLIGGYNQDELAYMVDYLLGLGRNVRIIYPEALKTAYLQELQQIQDFY	not soluble
MGSDKIHHHHHHMSQTLEQVIQNAGDLVNFVRNQQVGPNVYPGVPAEYSNWRNEQWAWAHSAVLYNQSYHMVDLAVKGPDAFKMLEHLGINSFKNFQPDRAKQFVPVTPDGYVIGDVILFYLDENHFNLVGRAPTIEWVEYHAASGNWNVTVERDERWAMRTDGKRNSYRFQIQGPNAMKIIEKATGKTAPDLKFFHMTRMTIGGKEVRALRHGMAGQPGFELMGPWEDYGAVHAALVEAGKGFQMALVGGRAYSSNTLESGWIPSPFPAIYTGEALRPYREWLSANSYEAKCSVGGSYVPETIEGYYTTPWDLGYGPFVKFDHDFIGRAALEKMAAEGKHRTKVTLALDNEDVMRVQSSALSKGDRAKFMEYPSAVYSMHPFDQVLADGKMVGLSTWIGYTANEGKFLTLAMMEPGYVEPGTQVSLLWGEPNGGTTKPTVEPHVQTEIKATVAAVPYSEVARDSYAEGWRTKK	not soluble
MGSDKIHHHHHHMSRFAACFEDLPDPRGRNARHPLTSILFIAVAAIVCGAESCTDMADFGVAKKKWLKTIVPLPYGIPSHDTFSTVFRHLDPDAFDAAFRRLTASFAQGLEGVVAIDGKAVRGAYRRAAKATPLHFVNVWAAGPGLVIGQKLAPGRNEVQGALDALALLALEGSIVTADALHCRPDTARAILAAGGDYALALKANQPGLLAQALARIEDADHVESIQIAAETAHDRTETRRASVVAVDDINFPGLQAIGCVETTSRHTNGHLTSHVRYFLLSTTMSPSALIEVVRTHWQIENKLHWVLDVHFREDAARNRKDNGPQNIAFLRKIALNLLRSHPDKASIRRKIKKAGWDDQFLTSLIAHMR	not soluble
MGSDKIHHHHHHMSRILNTEIIIPIIEKLVKKACYELDDNLMCSFRKAYDKEESKIGKETIKILIDNGEYAKKEQLACCHDTGTCIVIMEIGQHVCWEGKPLKDQVNQGVRQGYENGYLRKSMVADPLERINTNDNTPAILHTEIVDGDRVTITVMPKGGGSENMGTFKTLLPGDGIDGIKDFVLETVRRVGGNPCPPYIIGIGVGGTMDHCSWMAKKALLRPLGEFNAKPLYAQLEAELLEAVNNTGIGPLGMGGRITALGVHVDYYPCHITALPVAINFQCNASRHASEII	not soluble
MGSDKIHHHHHHMSRLAHNKALPYKIIVDLSFHRTRLPSDVSSLIKFEQRPAIINIHGLLGSHVMFHSLNKLLSRKLDADIFSVDVRNHGISPKAIPYDYTTLTNDLIYFIETHIGLERPIYLLGFSMGGKIALLTTLYKNINIRKCISIDLPPYETPELDPMILQNYDLIMRIIRRDVKILRGSPSWQKKVLELFKSLECNKRKCGGAVALYFANGFLSVKSNNVHQAQLHYEQQQHDPYINYSMPLSSMPNLLDEVKKWPDLSNQRDFFQKGTASRKVLFMKGLQSNFINNDYSLLRYNFPCADVREFNTGHNLLLENPEDSFKCILNFFAEETLDFE	not soluble
MGSDKIHHHHHHMSRLSTAPWGPVLKSVPTAAHWSLRPWCLSISLSANSEAMNKMQTEKLITPFAHALQHEHGVWGLIDQMKAVTHFLDEELERDRIRNLGIADASFLRKFGAKGTYAAQWLEAQGVVIPTRPNSWAQAADGSLALRLGNSEFLIEDVPGGTSCDRLAQACAGARGVYPVPHVEASFVISGHAVQALFSEVCSIDLTHASLGAQDVVMTQFAGVSVVLIRQDLKEEESLYRLWCDSSYGSYLWEVIAGIAHEHKGGPVGIGRYFASCP	not soluble
MGSDKIHHHHHHMSRRHYNLPPLTTLTAFEAAARHLSFKDAAKELSVTPGAVSHQVKALEGELGVALFRRKHRGVDLTVPGQTLYDTLAGSLTRISQSLQSIRDQSSAGVVTVGSTTAMAAMWLSPAVIRFWRDHPEININQVVRDRAFTTSAELDLYIWYGREKDQRLDQFPLYRDRLLPVAAPERAAELAGADLDVLASQRLIHLEGDDISWTKWHDWFRQLGYSGPVASGIRVNNYSIALQAARDGAGLTLGWERLISPLITQGDLAIIGPHVLPAPERFFLVSKPDEELTPSARLLRDWIIEEASQITDEPC	not soluble
